The values below are quoted from earlier work in article PMC7599640.

The term Kd denotes a measure of binding affinity in units of concentration.

The target in this series is alpha-bungarotoxin (Bungarus multicinctus) (UniProt P60615).
Chain of UniProt P60615 (P60615 22-95): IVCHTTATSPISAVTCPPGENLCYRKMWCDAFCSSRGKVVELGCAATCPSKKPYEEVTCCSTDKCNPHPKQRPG

As to “Nicotinic acetylcholine receptor (from UniProt P02710)”, the Kd was 0.4 nM.
